Assay results from patent CN114773485A (JIANGSU SIMCERE PHARM CO LTD, dated 2022).
Values joined by “and” are separate entries in the source; they are usually repeats but may differ in a detail not shown here. Equal entries are not always repeated.

Experiments:
PD-L1 on CHO-PD-L1 cells [1] = molecular target: T1, PD-L1 on CHO-PD-L1 cells (UniProt Q9NZQ7 19-290, limits assumed); test: flow cytometry on CHO-PD-L1 cells, anti-human IgG PE
T1 construct: whole, on cells; also called CHO-PD-L1细胞(南京勇山生物科技有限公司); 稳定转染PD-L1的CHO细胞株(GenScript，Cat.M00613)
T1 sequence (Q9NZQ7 19-290 limits assumed): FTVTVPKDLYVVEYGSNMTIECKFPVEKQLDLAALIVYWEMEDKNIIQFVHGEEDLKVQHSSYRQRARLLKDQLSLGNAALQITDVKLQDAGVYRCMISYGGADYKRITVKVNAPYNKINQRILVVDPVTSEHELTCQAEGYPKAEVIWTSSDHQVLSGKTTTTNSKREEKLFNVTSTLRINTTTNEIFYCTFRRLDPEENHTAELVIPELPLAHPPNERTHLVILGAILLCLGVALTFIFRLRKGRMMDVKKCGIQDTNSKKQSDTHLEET

PD-L1 on CHO-PD-L1 cells [2] = molecular target: T1, PD-L1 on CHO-PD-L1 cells; test: cell-based or functional assay
[3] = molecular target: T2, PD-L1 on mature human dendritic cells (human, UniProt Q9NZQ7 19-290); test: flow cytometry on mature human DC, anti-human IgG PE
T2 construct: whole, on cells; also called DC细胞表面PD-L1
T2 sequence (Q9NZQ7 19-290): as the sequence (Q9NZQ7 19-290 limits assumed) above

人PD-L1重组蛋白(Sino …) = molecular target: T3, 人PD-L1重组蛋白(Sino Biological,Cat.10084-H05H) (human, UniProt Q9NZQ7 19-239); test: competition ELISA, human PD-L1 coated, blocks PD-1-His
T3 construct: also called 人PD-L1蛋白
T3 sequence (Q9NZQ7 19-239 limits assumed): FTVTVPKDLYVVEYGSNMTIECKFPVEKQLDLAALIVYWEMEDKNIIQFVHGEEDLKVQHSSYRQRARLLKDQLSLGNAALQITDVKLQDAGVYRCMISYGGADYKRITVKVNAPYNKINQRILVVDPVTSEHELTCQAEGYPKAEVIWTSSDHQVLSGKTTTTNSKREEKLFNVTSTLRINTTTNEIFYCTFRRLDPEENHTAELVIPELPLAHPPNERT

重组人TGF-β1蛋白 = molecular target: T4, 重组人TGF-β1蛋白 (human, UniProt P01137 279-390); test: bridging ELISA: TGF-β1 coated, test molecule, then PD-L1-His and anti-His-HRP
T4 construct: also called 重组人、食蟹猴TGF-β1(Cat.#10804-HNAC，Sinobiological); 人TGF-β1重组蛋白(Novoprotein,Cat.CA59)
T4 sequence (P01137 279-390 limits assumed): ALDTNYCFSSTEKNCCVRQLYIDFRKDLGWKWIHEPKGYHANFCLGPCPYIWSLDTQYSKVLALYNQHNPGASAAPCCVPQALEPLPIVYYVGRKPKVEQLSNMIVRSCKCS

[4] = molecular target: T5, 食蟹猴PD-L1蛋白(Cat.#90251-C08H，Sinobiological) (cynomolgus monkey, UniProt G7PSE7 19-239); test: SPR, Biacore T200, antibody captured on Protein A chip, 25℃, 1:1 model
T5 construct: Bought protein used as analyte in Biacore; also called 食蟹猴PD-L1-His蛋白; 食蟹猴PD-L1重组蛋白; not shown: His tag
T5 sequence (G7PSE7 entry or part of it C08H C08H): as the sequence (Q9NZQ7 19-239 limits assumed) above, with A33T, A34S, S62N, R68Q, Q82R, F173L, T185A, T192I, H215L counted along it

B1: 人源化抗PD-L1抗体156-BM12 (antibody, V domains shown)
VH: QVQLVQSGPELKKPGASVKISCKASGYTFTDYYMNWVRQAPGQSLEWIGDINPNNGDTSYNQKFKGRVTLTRDTSTSTVYMELRSLRSEDTAVYYCARSVMDYWGQGTLVTVSS
VL: EIVLTQSPALLSLSPGERVTLSCSASSSVNYVYWYQQKPGQAPRPLIYLTFNLASGIPARFSGSGSGTDFTLTISSLEPEDFAVYYCQQWSSNPLTFGGGTKVEIK
notes: also called PD-L1单抗156-BM12; 人源化PD-L1抗体
EC50 (PD-L1 on CHO-PD-L1 cells [1]): 0.105 µg/mL | EC50, NFAT luciferase reporter (RLU), Jurkat-PD-1/CHO-PD-L1 (PD-L1 on CHO-PD-L1 cells [2]): 341 ng/ml and 2.15 nM | EC50 [3]: 0.405 nM | IC50 (人PD-L1重组蛋白(Sino …)): 0.896 nM and 1.49 nM | binding result (重组人TGF-β1蛋白): no binding (tested: 4nM) | binding result [4]: binds
